According to the Human Domainome abundance scans (Beltran et al. 2025):
± gives the uncertainty stated by the source.

B1: Bromodomain adjacent to zinc finger domain protein 2B, residues 1927 to 1982; numbered along this chain, Q9UIF8 (parent)
chain: KSIMKVYCQICRKGDNEELLLLCDGCDKGCHTYCHRPKITTIPDGDWFCPACIAKA

Variants of: B1
Experiment: abundance fitness (aPCA) (normalised: wild type 0, dead -1); higher = more abundant; growth selection in yeast, the domain comes from the species named
Conditions: Homo sapiens

Question: For KSIMKVYCQICRKGDNEELLLLCDGCDKGCHTYCHRPKITTYPDGDWFCPACIAKA, which abundance fitness is on record?
Answer: -0.093 ± 0.18

Question: With KSIMKVYCQICRKGDNEELLLLCDGCDKGCHTYCHRPKITTSPDGDWFCPACIAKA as the variant, how does the abundance fitness read?
Answer: -0.065 ± 0.085

Question: With KSIMKVYCQICRKGDNEELLLLCDGCDKGCHTYCHRPKITTEPDGDWFCPACIAKA as the variant, how does the abundance fitness read?
Answer: 0.069 ± 0.14

Question: With KSIMKVYCQICRKGDNEELLLLCDGCDKGCHTYCHRPKITTGPDGDWFCPACIAKA as the variant, how does the abundance fitness read?
Answer: -0.048 ± 0.077

Question: With KSIMKVYCQICRKGDNEELLLLCDGCDKGCHTYCHRPKITTTPDGDWFCPACIAKA as the variant, how does the abundance fitness read?
Answer: 0.011 ± 0.1

Question: For KSIMKVYCQICRKGDNEELLLLCDGCDKGCHTYCHRPKITTHPDGDWFCPACIAKA, which abundance fitness is on record?
Answer: -0.235 ± 0.13

Question: For KSIMKVYCQICRKGDNEELLLLCDGCDKGCHTYCHRPKITTKPDGDWFCPACIAKA, which abundance fitness is on record?
Answer: 0.009 ± 0.1

Question: For KSIMKVYCQICRKGDNEELLLLCDGCDKGCHTYCHRPKITTPPDGDWFCPACIAKA, which abundance fitness is on record?
Answer: -0.043 ± 0.11

Question: For KSIMKVYCQICRKGDNEELLLLCDGCDKGCHTYCHRPKITTLPDGDWFCPACIAKA, which abundance fitness is on record?
Answer: -0.015 ± 0.08

Question: Which abundance fitness does the source give for KSIMKVYCQICRKGDNEELLLLCDGCDKGCHTYCHRPKITTQPDGDWFCPACIAKA here?
Answer: -0.201 ± 0.11

Question: Which abundance fitness does the source give for KSIMKVYCQICRKGDNEELLLLCDGCDKGCHTYCHRPKITTFPDGDWFCPACIAKA here?
Answer: -0.007 ± 0.2

Question: For KSIMKVYCQICRKGDNEELLLLCDGCDKGCHTYCHRPKITTVPDGDWFCPACIAKA, which abundance fitness is on record?
Answer: -0.039 ± 0.099

Question: With KSIMKVYCQICRKGDNEELLLLCDGCDKGCHTYCHRPKITTRPDGDWFCPACIAKA as the variant, how does the abundance fitness read?
Answer: -0.054 ± 0.073

Question: Which abundance fitness does the source give for KSIMKVYCQICRKGDNEELLLLCDGCDKGCHTYCHRPKITTAPDGDWFCPACIAKA here?
Answer: 0.042 ± 0.1

Question: With KSIMKVYCQICRKGDNEELLLLCDGCDKGCHTYCHRPKITTDPDGDWFCPACIAKA as the variant, how does the abundance fitness read?
Answer: -0.209 ± 0.24

Question: Which abundance fitness does the source give for KSIMKVYCQICRKGDNEELLLLCDGCDKGCHTYCHRPKITTMPDGDWFCPACIAKA here?
Answer: 0.049 ± 0.15

Question: Which abundance fitness does the source give for KSIMKVYCQICRKGDNEELLLLCDGCDKGCHTYCHRPKIRTIPDGDWFCPACIAKA here?
Answer: -0.043 ± 0.069

Question: For KSIMKVYCQICRKGDNEELLLLCDGCDKGCHTYCHRPKIMTIPDGDWFCPACIAKA, which abundance fitness is on record?
Answer: -0.024 ± 0.14

Question: Which abundance fitness does the source give for KSIMKVYCQICRKGDNEELLLLCDGCDKGCHTYCHRPKINTIPDGDWFCPACIAKA here?
Answer: -0.232 ± 0.14

Question: Which abundance fitness does the source give for KSIMKVYCQICRKGDNEELLLLCDGCDKGCHTYCHRPKIYTIPDGDWFCPACIAKA here?
Answer: -0.11 ± 0.16

Question: With KSIMKVYCQICRKGDNEELLLLCDGCDKGCHTYCHRPKISTIPDGDWFCPACIAKA as the variant, how does the abundance fitness read?
Answer: -0.131 ± 0.079

Question: Which abundance fitness does the source give for KSIMKVYCQICRKGDNEELLLLCDGCDKGCHTYCHRPKIWTIPDGDWFCPACIAKA here?
Answer: -0.082 ± 0.11

Question: Which abundance fitness does the source give for KSIMKVYCQICRKGDNEELLLLCDGCDKGCHTYCHRPKIPTIPDGDWFCPACIAKA here?
Answer: 0.031 ± 0.13

Question: Which abundance fitness does the source give for KSIMKVYCQICRKGDNEELLLLCDGCDKGCHTYCHRPKIVTIPDGDWFCPACIAKA here?
Answer: -0.056 ± 0.098

Question: For KSIMKVYCQICRKGDNEELLLLCDGCDKGCHTYCHRPKITTIPDDDWFCPACIAKA, which abundance fitness is on record?
Answer: -0.068 ± 0.13

Question: Which abundance fitness does the source give for KSIMKVYCQICRKGDNEELLLLCDGCDKGCHTYCHRPKITTIPDCDWFCPACIAKA here?
Answer: -0.235 ± 0.4

Question: For KSIMKVYCQICRKGDNEELLLLCDGCDKGCHTYCHRPKITTIPDWDWFCPACIAKA, which abundance fitness is on record?
Answer: -0.728 ± 0.32

Question: For KSIMKVYCQICRKGDNEELLLLCDGCDKGCHTYCHRPKITTIPDMDWFCPACIAKA, which abundance fitness is on record?
Answer: -0.371 ± 0.47

Question: With KSIMKVYCQICRKGDNEELLLLCDGCDKGCHTYCHRPKITTIPDKDWFCPACIAKA as the variant, how does the abundance fitness read?
Answer: -0.425 ± 0.41

Question: With KSIMKVYCQICRKGDNEELLLLCDGCDKGCHTYCHRPKITTIPDADWFCPACIAKA as the variant, how does the abundance fitness read?
Answer: -0.154 ± 0.2

Question: With KSIMKVYCQICRKGDNEELLLLCDGCDKGCHTYCHRPKITTIPDVDWFCPACIAKA as the variant, how does the abundance fitness read?
Answer: -0.139 ± 0.23

Question: With KSIMKVYCQICRKGDNEELLLLCDGCDKGCHTYCHRPKITTIPDRDWFCPACIAKA as the variant, how does the abundance fitness read?
Answer: 0.023 ± 0.17

Question: With KSIMKVYCQICRKGDNEELLLLCDGCDKGCHTYCHRPKITTIPDSDWFCPACIAKA as the variant, how does the abundance fitness read?
Answer: -0.005 ± 0.13

Question: For KSIMKVYCQICRKGDNEELLLLCDGCDKGCHTYCHRPKITTIYDGDWFCPACIAKA, which abundance fitness is on record?
Answer: -0.263 ± 0.19

Question: For KSIMKVYCQICRKGDNEELLLLCDGCDKGCHTYCHRPKITTIHDGDWFCPACIAKA, which abundance fitness is on record?
Answer: -0.217 ± 0.14

Question: For KSIMKVYCQICRKGDNEELLLLCDGCDKGCHTYCHRPKITTINDGDWFCPACIAKA, which abundance fitness is on record?
Answer: -0.245 ± 0.23

Question: For KSIMKVYCQICRKGDNEELLLLCDGCDKGCHTYCHRPKITTIQDGDWFCPACIAKA, which abundance fitness is on record?
Answer: 0.024 ± 0.12

Question: Which abundance fitness does the source give for KSIMKVYCQICRKGDNEELLLLCDGCDKGCHTYCHRPKITTIADGDWFCPACIAKA here?
Answer: -0.006 ± 0.083

Question: With KSIMKVYCQICRKGDNEELLLLCDGCDKGCHTYCHRPKITTIGDGDWFCPACIAKA as the variant, how does the abundance fitness read?
Answer: -0.016 ± 0.079

Question: For KSIMKVYCQICRKGDNEELLLLCDGCDKGCHTYCHRPKITTIDDGDWFCPACIAKA, which abundance fitness is on record?
Answer: -0.071 ± 0.2

Question: With KSIMKVYCQICRKGDNEELLLLCDGCDKGCHTYCHRPKITTIIDGDWFCPACIAKA as the variant, how does the abundance fitness read?
Answer: 0.092 ± 0.27

Question: Which abundance fitness does the source give for KSIMKVYCQICRKGDNEELLLLCDGCDKGCHTYCHRPKITTIWDGDWFCPACIAKA here?
Answer: -0.188 ± 0.14

Question: Which abundance fitness does the source give for KSIMKVYCQICRKGDNEELLLLCDGCDKGCHTYCHRPKITTIEDGDWFCPACIAKA here?
Answer: -0.041 ± 0.11

Question: With KSIMKVYCQICRKGDNEELLLLCDGCDKGCHTYCHRPKITTIRDGDWFCPACIAKA as the variant, how does the abundance fitness read?
Answer: -0.083 ± 0.081

Question: With KSIMKVYCQICRKGDNEELLLLCDGCDKGCHTYCHRPKITTIKDGDWFCPACIAKA as the variant, how does the abundance fitness read?
Answer: -0.08 ± 0.15

Question: With KSIMKVYCQICRKGDNEELLLLCDGCDKGCHTYCHRPKITTISDGDWFCPACIAKA as the variant, how does the abundance fitness read?
Answer: 0.053 ± 0.1

Question: For KSIMKVYCQICRKGDNEELLLLCDGCDKGCHTYCHRPKITTICDGDWFCPACIAKA, which abundance fitness is on record?
Answer: -0.095 ± 0.14
